One variant from IntAct's records for PubMed 19737520 can be followed below.

First the molecules themselves.
B1: Trigger factor (Thermotoga maritima (strain ATCC 43589 / MSB8 / DSM 3109 / JCM 10099)), Q9WZF8 (parent)
chain: MEVKELERDKNRVVLEYVFGAEEIAQAEDKAVRYLNQRVEIPGFRKGRIPKNVLKMKLGEEFQEYTLDFLMDLIPDTLKDRKLILSPIVTERELKDVTARVVVEVHEEPEVRIGDISKIEVEKVDEEKVLEKYVERRIEDLRESHALLEPKEGPAEAGDLVRVNMEVYNEEGKKLTSREYEYVISEDEDRPFVKDLVGKKKGDVVEIEREYEGKKYTYKLEVEEVYKRTLPEIGDELAKSVNNEFETLEQLKESLKKEGKEIYDVEMKESMREQLLEKLPEIVEIEISDRTLEILVNEAINRLKREGRYEQIVSSYESEEKFREELKERILDDIKRDRVIEVLAQEKGISVNDEELEKEAEELAPFWGISPDRAKSLVKARQDLREELRWAILKRKVLDLLLQEVKVKVVEPKGEGDDSEGKEDN
partner: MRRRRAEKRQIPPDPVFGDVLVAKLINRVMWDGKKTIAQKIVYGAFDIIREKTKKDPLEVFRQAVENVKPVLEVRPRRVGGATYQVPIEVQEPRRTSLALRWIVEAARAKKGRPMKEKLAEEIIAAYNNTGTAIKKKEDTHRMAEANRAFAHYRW

The variants in this test derive from B1. To be noted: with rs7_thema rpsG.
On to E266R;E269R;E273R, for which the “effect of a mutation on the interaction” value is reported as “disrupting interaction”.
